Assay: soluble on expression in E. coli; label from the status in PepcDB or PDB records

Sequence	soluble on expression in E. coli
METAPDEAPTEFLEPGEEIVENVIEEEVVHEEDVEHHEEDGEMIEVQHEEVLEEIVEEDGMMFDTDGRVIEYSDVMVYEEGTEVIEEYVEVEDLGDGRYAYVMTDDIGHRRLLKPHEVEAVKKMPGMMEEEVVMDDEKAPNTSYAAAQKRGRFPPQARSSLSPQKPRAAGAYMGPEAYYQQPKRMTHMAKVDVEKYSPVTPVNRRPLMDNAIFKSKLPRKSAPWQEETAANGGPQSTSLIRSPSPMLKEPLFDDNEIRFKCAECGDGFPVMDRLCDHMIKQHDCQTNVREVQFFADRDFENFLLKVEKATLGRDPEDAIRKKSRAGSSQLFVCNYMNKGRQKMAELVEVGIVGLSERPLEVCTAFVQKTHGYECIRVKYCDQHIHYDGNIGFRVPIAVKRRLFEMSFKRLPIPCMQIMLGLEAEQLLPHPTRFEEKLKNLSHVEIIELLQIINASLRKHQEVEPRGKKVPIKFETIKSSEGSQTLMVKRVTPPKKEHMDYDEPDPNIPSTSAQALGYNPDDDEGDDVPMMSREEEVLDDETGEESVMTEDCDGMMEDNMCSFLVFFCWRKNGEK	not soluble
GILELAGTVGCVGPRTPIAYMKYGCFCGLGGHGQPRDAIDWCCHGHDCCYTRAEEAGCSPKTERYSWQCVNQSVLCGPAENKCQELLCKCDQEIANCLAQTEYNLKYLFYPQFLCEPDSPKCD	soluble
MTPRSLVRIVGVVVATTLALVSAPAGGRAAHADPCSDIAVVFARGTHQASGLGDVGEAFVDSLTSQVGGRSIGVYAVNYPASDDYRASASNGSDDASAHIQRTVASCPNTRIVLGGYSQGATVIDLSTSAMPPAVADHVAAVALFGEPSSGFSSMLWGGGSLPTIGPLYSSKTINLCAPDDPICTGGGNIMAHVSYVQSGMTSQAATFAANRLDHAG	not soluble
MAHHHHHHMAAPSHQHSLVLERSTCHHYYHCVLYDILFDLPVREIAAQVVPCKDSNIVQRLTSADCRVVPHQLHVYKEPLEKKFGYVSFFVHRAPHSSTAADDVHRLVCEWVAVDLASQLATVQCKVQLAQPPECHSSEPFLNAFRLKCPLLDPTLAADTKKLETFVLTRVRFGQHCGNASVNQLNAVHCDDAKSAASAGSCGTETEMCTDDGLTATEGELDAGARSATRTLDEHVWKCVGTFLIASLSPKELVWLKKQLPSFPPLRIANGDMDTAYCDEAKLAQFFETSLAPLFTVDEVVEAAALNTVNSEA	not soluble
MSATVKPYQEMESGKREQVELMFNNISPKYDLLNRVLSLGIDKIWRKQALNLLKQDKPAHILDVATGTADLAIEAATRLKPTSVVGIDIAEDMLQIGRGKIAKKNLDKIIRLEKGDSEKINFPDNTFDAVIVSFGVRNFEHLEIGLAEIHRVLKPAGSIMVLEFSKPQNAPFKQVYQFYFKNILPTVGKLISKDSAAYTYLPDSVNAFPDGKAFCSILEKTGFTIKHYKPYTFGVCTAYVGKKLEHHHHHH	not soluble
MAGNFDSEERSSWYWGRLSRQEAVALLQGQRHGVFLVRDSSTSPGDYVLSVSENSRVSHYIINSSGPRPPVPPSPAQPPPGVSPSRLRIGDQEFDSLPALLEFYKIHYLDTTTLIEPVSRSRQGSGVILRQEEAEYVRALFDFNGNDEEDLPFKKGDILRIRDKPEEQWWNAEDSEGKRGMIPVPYVEKYRPASASVSALIGGNQEGSHPQPLGGPEPGPYAQPSVNTPLPNLQNGPIYARVIQKRVPNAYDKTALALEVGELVKVTKINVSGQWEGECNGKRGHFPFTHVRLLDQQNPEEDFS	soluble
MGSDKIHHHHHHMIKALNIVTKTGTELQGALFKAAHATTVLIAITGVHGNFYSNPFYVNIGKTLMAAGIDFIYAQTRDAFNQVVSLNHLTGKKELVGSWSEQFDDANEDIAAYLSYAEENQYQHIILGGHSLGANKVIYYLANHADVNVTKFLLLSPANLKRLTDMVSLSERNIIQKQIAAGNSNQLLPFELFGWLPCTAKTADQWLNSGILDNVHSDLRADFSQIERIRLSGAMVIGTLDTFTYGDPIKYLKTINAHFLSHAENDLVFIQKTGHTYQNKDQKLANEILKLIKNWSLGGN	not soluble
MQVLSMIFTREILEEAINYGLTKNTTSFTRIKAGIYKTEREKHRDLPSHYIYTACEDASERLDSFNKLKKRGRSYTDRPSVRRVTVHLDDHLWKFSLNVISIATKRGRVCISPIFPKIFWRYYNDNWLIASGARFKLLKGNVVEFFIVFKKDVKSYDPRGFIPVDLNEDSVSVLINGKPILLETNTRMITLGYEYKRRSITNGRSTKDREVRRKLRERDKKLDVRRKFAKLIVKEAFGSRSAIVLEDLPRGVPEHMVKGVKDKQLRLRIYRSAFSSMKNAIVEKAREFGVPVILVDPSYTSSICPVHGSKIIYQPDGGSAPRVGVCGKGGERWHRDVVALYNLRKRAGDVSPVPLGSKESHDPPVVQVVEGLEHHHHHH	soluble
MGSDKIHHHHHHMDTLFTINACKTFGCRNLGLPSAAEYHFPNFRLGYPALYCAACGSYPPLFNEREFRPWLAAYLTDHARRYGYFCPVCYQRDIIRYGRNPQGTQRLQCRHCKKVWTPKFPHIAPIEAPRRICSVPLIAPFQGNAAGQKLYFLLSFDAVRGNVIHLTSNFTPFAVGESLRYRWRGGQADREETDDIIQRISLTEMRFLQRSQFDEIQYGSAMQKRHARGNILRPVIAAHGHFKLLSQRFPEVKTHVIAHECFLRGAAIVAWAPLFRQRQGDLWYVEEEIRNPASPAPWQLLGKTHHGWWQNSWQRWTQEENQKMVCRLAGTVEENAFLPDLAASRRFTIWLKNRPAFAQSALYSAGRVTQIVASLVQEYNATLTAAAPGG	not soluble
MDSEKIKIFTRNYKGSLIMSKRSPKSVSEKLEIVLLRLEEGKSLSWLTRNQGISKDTLSNWVRKYKEAGVDGLEESRQWKKYSKELKEQAVSDYLNGLGSLKDLTKKYGISDPYVLRSWIKSYTSGKELKATSKGMRRMKQGRKTTFEERIEIVNFTLAHEKDYQGAVEKYGVSYQQIYSWVRKFEKDGSNGLLDRRGKGLTSKPNLTPEEELRLKIKQQEERIKYLEMENGLLKKLEEIKRRNRRLEHHHHHH	soluble
MAHHHHHHMPPKGQRSLNIAQPLSSSRAQSANAILRSAASAMATSGPAASKSSPRTSCFPRAFMSTGNARNEMEAYYEQLLSQDRVDGVDAFGKNGIHLLCKGLGIKPESFEMYTLIWKMGVTRGCCIPRADWLKTIYTYKIEQPMDLKLVLVEWVKESRGDSFTEFYNDLYDYIRGEEARLMPYGTAVEAWAVLFQNEPRIIPWIKWYSDIYRREVTRDVWRQIGIFLSAVPNIEAYNVEDRWSCAIDSYVEWCKVSG	not soluble
MKNREIYAEMRCIPPVVLRADGRNFKNTLSGLGFEKPYDTTFARAMADTAELFIKKSGLSPYFAYTFSDEISFLFTDLPFDGRVEKIDSVVASFLGSALTIKLRLEAPIAFDSRLVALQKEEVSEYFHWRQLEAWRNFVASWGYYSLRNEGMGKDEAGKFLKGKKEWEIHEMLFERGINLAALPAWQRRGIIISKEECEISGFNPVYGKEVKSMRRRITQNWEIPKFKSEEGITFLEKLINRNMAGDPLEHHHHHH	not soluble
MKIIGSMGKKTENLKIDAKKSFLKRIAKNVKVSEGERAVEDILRCIYRNQPISTKKIGQYVKLPLPIVSKVRSILERESLLKRDDKGAVLSKKGIDFVENELGLKLKSDMKCPVCSGRNIVFDEKFEKILKKHKTYAKLRPQVNTMIDQSFATPETATARAAIMADRGDLEGKRVLFVGDDDLASIPTAMTGLCSEVVVLDIDDRLLKLISEVSKKENLNIRTVKWDFKNELPSEFVNKFDTIFTDPPYTLNGAVLFMSRGIEALGDNGILYLAFSHKPVEEYIELQKSINNMNFLIYELIPGFNFYEGTEIIGNTTFLARLVGKNLKKIEVNSEKIYTGELKPTLRYYQCMNCKKIHEVGNKVKRIEDLTCECGGKKFSMIKRAKVKQK	not soluble
MRDERLSKIISMFQAHIRGYLIRKAYKKLQDQRIGLSVIQRNIRKWLVLRNWQWWKLYSKVKPLL	soluble
MGSDKIHHHHHHMDNPRSIRVHASELEVGRPLSWAVYDENGVLLLNKGMAPATEAQIIAMLQRGVFRQPGSGVGAGAAGSKSAIPPMGLGPSEDESKTRLTGDPIPFDDLAMQPGEVLQLHPALEVVAADVPAVLIGYLKDRAIVVATPMVSGKPLLVKDGTLFNIKTFSGTSLYNFRTRVLASHSHPMPHLHLEYPRLVCQTKIRKALRALTDLPATLLNPASGDSRDVVLKDLSVGGAKIVLPEPVTCAKGDPFVVGFRIKIGDDLEEAIRADAVMCSAESRTGKETTVHTMSVQFKELPKSTSLAIMALVYRLQLRKG	not soluble
MQLKRKNSVFIDPRIQEVAGPCEPSDNGNNEEEDKIISIRATASSASITKESVPEAPPTHFIPVVVTVEPDAWEKFRDIIQVNRNIVIVKVGRWLMSSFMPGDQISLVNGTAIWNSDDLENQVRGPKKETKTEVTVIRVWNLKCLTDIQLDKLLVPPEEQLHYFSVKVYSSKGTIGLKLCLDKKRVLVELIRAKTPVNSALLVGDQILGINDELLTAKSKRALRKQVAEVMKKSIKKQGFAEIIACRQVIARSSPAPSLEAELSEKFANYAVGVEKGTRIEKKDSSETNSLPLHSDALEIALRELACLKQWIVESSTEVPPCDKGPTLMIDPPTAPGSAEGCPPPLVKAKSTTNAIERSVYFPLSTTAAVAILVSTPKKRSIFRQQDRNSAINFAEQPDHEKITSDIPEEDDLKKCEPMSGIAAYIKKKFN	not soluble
MSDNALTSSRRFGGIARLYGDSALAHFSQAHVCVVGVGGVGSWAVEALARTGIGRLTLIDLDNVAESNVNRQLHALTGDFGKAKVTALRERITQINPQCEVFEIEDFVTEDNLPEYFGKGFDFVIDAIDQVRVKAAMAAYFVERKQPFVLSGGAGGQKNPALIQTADLSRVTHDPLLANLRYTLRKRYGFSRDTKANMRVPCVYSTENIVPPQSREACSADAAPQGLSCAGYGASMLVTASFGLYCAQAAVEHIADKKLEHHHHHH	soluble
MGSDKIHHHHHHSAHNKVSSQKLEAKNVNQVSNYSGDIDLLTVSQPTTPTTNNGQINQYFINRFDNAISLLNGKYVVNHNVLPQNTSGEEINILNESVKIANQQLIVGAQKIEKSDIDVKVVQKGNSIILAENPTTLKNSATSMATKHVGVTKVEFHWYGVRLFLSKNDVNKILKYGPTSVSIATIWMPTTWVVKLAASAAVACGWMSSVNGGIWIDWGLIPTKWGWQ	not soluble
MKMYADERREHIYSYIKSHKRATVKQLSDYLSVTEATVRSDLRRLESENKLTRTHGGAKVTENIGSKFNFSYRLTQKHGEKYKISKSALKKIKPQQCIMIDASSTTYELAKLLAETTMELTIITNGLENAVLLKENPHLTVLVVGGFVSQDSNAITGNIDSQILEMYHIDYFFLSANGFTLENGLTDFSLPEVQLKKQMVQESENVIALIDKSKFGVSSTLSFAKISDINEVITDEKPEHKWLKHVPFSVTVAQLEHHHHHH	soluble
MCMNTQSPPSPHDPHGAAALPFRLWTAEERRASLDTALREWRDGEDVWVYGYGSLIWRPDFDFVERRLATLHGHHRALLWSRVNRGTPECPGLVFGLDRGGSCRGVVYRLAGRQVPDYFPALWDREMSTGAYLPRWLRCATEHGPVNALVFIMNRANPAYIRALPEPELLAIVRRASGRYGPCTEYVVQTAQALRQAGIRDARLEQIARQLEAEVHPLGVLEHHHHHH	soluble

— the DeepSol protein solubility set
